Assay: soluble on expression in E. coli; label from the status in PepcDB or PDB records

Sequence | soluble on expression in E. coli
MKTVVFAYHDMGCLGIEALLAAGYEISAIFTHTDNPGEKAFYGSVARLAAERGIPVYAPDNVNHPLWVERIAQLSPDVIFSFYYRHLIYDEILQLAPAGAFNLHGSLLPKYRGRAPLNWVLVNGETETGVTLHRMVKRADAGAIVAQLRIAIAPDDIAITLHHKLCHAARQLLEQTLPAIKHGNILEIAQRENEATCFGRRTPDDSFLEWHKPASVLHNMVRAVADPWPGAFSYVGNQKFTVWSSRVHPHASKAQPGSVISVAPLLIACGDGALEIVTGQAGDGITMQGSQLAQTLGLVQGSRLNSQPACTARRRTRVLILGVNGFIGNHLTERLLREDHYEVYGLDIGSDAISRFLNHPHFHFVEGDISIHSEWIEYHVKKCDVVLPLVAIATPIEYTRNPLRVFELDFEENLRIIRYCVKYRKRIIFPSTSEVYGMCSDKYFDEDHSNLIVGPVNKPRWIYSVSKQLLDRVIWAYGEKEGLQFTLFRPFNWMGPRLDNLNAARIGSSRAITQLILNLVEGSPIKLIDGGKQKRCFTDIRDGIEALYRIIENAGNRCDGEIINIGNPENEASIEELGEMLLASFEKHPLRHHFPPFAGFRVVESSSYYGKGYQDVEHRKPSIRNAHRCLDWEPKIDMQETIDETLDFFLRTVDLTDKPS | soluble
MGSDKIHHHHHHVSCDYFNRGLCQSCRLMSKPVTEQLLEKEARLTHLLGGLPVDERLAPVSGPEFGFRNKAKMVVMGAAHAPVLGIPGPDGQPVDLSHCPLYPQDMQALLLELTSFVRRAGIPPYRVDKAKGELKFILLTRSAVRGEFMLRFVLRSKDAIPRIERELPKLLADFPAIKVVSVNLQPVHMARLEGEEEIFLTQATRLDEVFNGVPLFIRPKSFFQTNPEVASRLYATAAKWVDELSPKSLWDLFCGVGGFGLHCANESLPVTGIEIEAEAIDCAKTSAAAMGLDNLSFAALDSTDFAMGQQAQEVPEVIIVNPPRRGIGEELCERLSAFGPRAIIYSSCNPETLAKDLALISGYRIARVQLFDMFPHSDHFEVLCLLLKEAACASAD | not soluble
MPSSRGVSLSISLAEAEVAPGGMLRGEVKVKVDSSHKNGIVYEAIRLVFLAVEKSCVWDDQGEFDELLNKYTSSRVYLDRHVTLTGFKTQSEDAETTAQVREEMLFLQHCATPYAAVAPTKPKKDAYRHYTREELLHGAIQMAATTKYTTGGVVAPDTNDSTNICMGSQKPVQAGDGPRSAAAAPRGGATEVEFPVLMPGTHRFPFLFRLPPWLPPSFYYSFVGAKGQLQYSASATMLFPGNGAGSWWFKICKDTSGAMRDMGKTFNRAAGSGAPSGKRARKRPGRDESGEGVIDLDDDEVGERMNRRLTSMPVYGPSDLTTAIHFDVLSVMPRRQLVAEYYQIDTHNLHQRPTNAPREAENAVSSSSNRNGAKKLQRRVDKSNDVGDVKPSGVSTGLLEHHEDTHLALSALYQTFRCGWLGNMCCLQPQNAIEAEVLVVGARTVLLADDVGALQALGVRPPITSDAPQLGGPALHAPDIVPSPDMAVAAPNTPWPVGGITLRVRVRNYCPTHTVECVRVELKVMLEIFKSLKTPHTFPGISYSSFDYTIPIPPGNQALFDVRLGLAPRFRRHETDSESLLPPPGVRTANMTSNTFLQVSFPGMYTYVEEEEEAKGVVIMAETVNLNDEVLELPVRYS | not soluble
MSLANNKISQTTKKLSQIFNSEKQPAVFFDKNVSTIEENNSLLDGQTDVPVLDPHDLLVEVQAVSVNPVDTKLRQTGVASKIKILGYDAFGIVKNTGKDVTRFHAGDRVYYAGTTQRPGSNEKFQAVDERLVGRAPEKLNKSEIAAMPLTSITAYEILVDQLGLRFQNHAADGKNMLVINGAGGVGSVLLQMAAYLGINLSVTAHSSESIEWLKKYSVDKIYDYENIDETLADQKFDYIVFLYDPALYWDIAIKHIKPYGQLVSIVGTNKPLNMGPLKNIAVQFKWEYMFAKSDFNHNILSQGQALDKIAILLDAGILKTTLNKTFDLINAENLRQAYKLVESGRMQGKVVLNGEGHHHHHH | not soluble
SMIPEVQKPLHEQLWYHGAIPRAEVAELLVHSGDFLVRESQGKQEYVLSVLWDGLPRHFIIQSLDNLYRLEGEGFPSIPLLIDHLLSTQQPLTKKSGVVLHRAVPKDKWVLNHEDLVLGEQIGRGNFGEVFSGRLRADNTLVAVKSCRETLPPDLKAKFLQEARILKQYSHPNIVRLIGVCTQKQPIYIVMELVQGGDFLTFLRTEGARLRVKTLLQMVGDAAAGMEYLESKCCIHRDLAARNCLVTEKNVLKISDFGMSREEADGVYAASGGLRQVPVKWTAPEALNYGRYSSESDVWSFGILLWETFSLGASPYPNLSNQQTREFVEKGGRLPCPELCPDAVFRLMEQCWAYEPGQRPSFSTIYQELQSIRKRHR | soluble
MKKLLFFLFTLVVLASGCGKKNTFTLEGSIKGLPSDTILVFYQEPDYKLDTILLSKGKFTYTITPDTFTIFSLLLGEKQILPIYADKGESVTLNGMVGKIEVKGKGENAQLAKHIQYLSTLENNKAAVMTAVDSLIKTNPSSYSNIYLIDKYYVQDSLPDYNHIDQLIKGLSGIIKDTPYIIELQNKLSEKKELTEHRYVSNISCTDKKGKTVNWNSVKGKYVLLDFWASWNKESIATQDSLVSVQKALKKDKFVIISLSLDLDKKEWMEKIIQRDTTQWKQVCDFKGWNNSIVKQQGITRIPANILIGPDKRVITQDIRGKELIDKVRQLTEQDKEKEKAAKEAERARKRQNKK | not soluble
MSAKMDEQALLALLRELAIDSQRVEHPAIASIEEYYAQGIELPDQGIKNLFLRNRKGTRHYLVLLDERKEADLPGIAEQIGESRLSFASVERLREYLGVELGCVTPFALVNDPQHRVEVLLDDAIRQDQLLGFHPLVNTATECIRYADLLAFLAHTGHEPRLIRA | not soluble
MKNKLLFMMLTILGAPGIAAAAGYDLANSEYNFAVNELSKSSFNQAAIIGQAGTNNSAQLRQGGSKLLAVVAQEGSSNRAKIDQTGDYNLAYIDQAGSANDASISQGAYGNTAMIIQKGSGNKANITQYGTQKTAIVVQRQSQMAIRVTQR | not soluble
SDENNGLLLLELNPPNPWDLQPRSPEELAFGEVQITYLTHACMDLKLGDKRMVFDPWLIGPAFARGWWLLHEPPSDWLERLCQADLIYISHLHSDHLSYPTLKKLAGRRPDIPIYVGNTERPVFWNLNQSGVQLTNINVVPFGIWQQVDKNLRFMILMDGVHPEMDTCIIVEYKGHKILNIVDCTRPNGGRLPMKVALMMSDFAGGASGFPMTFSGGKFTEEWKAQFIKTERKKLLNYKARLVKNLQPRIYCPFAGYFVESHPSDKYIKETNTKNDPNELNNLIKKNSDVITWTPRPGATLDLGRMLKDRTDSKGIIEPPEGTKIYKDSWDFEPYLEILNAALGDEIFLHSSWIKEYFTWAGFKDYNLVVRMIETDEDFNPFPGGYDYLVDFLDLSFPKERPQREHPYEEIHSRVDVIRHVVKNGLLWDELYIGFQTRLQRDPDIYHHLFWNHFQIKLPLTPPNWKSFLMCCEQNGPVILQECKTT | soluble
MRDALHVTADDADATDDAIPDSRETGVTGVVLAGGLSTRLGHDKAVIRLHGEQGPDLLVRTAALLEPLVDEVWISCRPGRCVTGPYLRIYDEVQGLGPFGGVMTALRAAQGPVLVLSCDLPFMERTLLERLLERRGARHPEALMTTFRQEETGFIESLVAVYEYACLPFFEDALTDGVHKLSRVIPAERREDIVYTQNEALPFFNVNYPADLEMARRIIGALLEHHHHHH | not soluble
MGSDKIHHHHHHMDQSWVNQAIAKIEADYQRSADTHLIKLELPMLPCIDIYLKDESTHPTGSLKHRLARSLFLYALCNGWITQDTPIIESSSGSTAVSEAYFARLLGLPFIAVMPASTAKKKIQQIEFYGGRCHFVEHSSQIYAESQRLAEELSGHYMDQFTYAERATDWRGNNNIANSIFEQMQREPHPVPSWIVMSPGTGGTSATIGRYIRYQCAKTKLCVVDPENSVFYDYYHSGDASISCAGASRIEGIGRPRAEPSFIPGVVDHMVKIDDSASIATIYWLETLIGRKAGPSTGTNLYGALQLASEMHANGQTGSIVTLLCDSGDRYLDTYYDKQWVDEHIGDITEYQAKLAAFNESGHLE | not soluble
MSLAMRFMLLLMLVGMAHGALANPLRVCVGDVNVWPPFTYWQGSSAQEKAESLTGSATTLVLEALKKQEIEYQLHFMPWARVQQELAQATGRCDLTWDASYRAERAEYSYFSVPLYTIQLGYFTLPENSKDLNLATDSDVLCGVNGFNYQNFALPREPSLTLNSVQQALNMLQKERCDWFVSEIEPIYGGIMLGLYQLDRPIQHHFLGKTKEYHVQVRRSLPNAMPLLNGLNEYILQAQSSGHAQAVFDRFLSITQTEGHHHHHH | soluble
EVQLLESGGGLVQPGGSLRLSAAASGFTFSTFSMNWVRQAPGKGLEWVSYISRTSKTIYYADSVKGRFTISRDNSKNTLYLQMNSLRAEDTAVYYVARGRFFDYWGQGTLVTVS | soluble
